From patent publication US20240200091A1, “USE OF PROTOPORPHYRINOGEN OXIDASE” (BEIJING DABEINONG BIOTECHNOLOGY CO., LTD., priority 2021, published 2024)

Tests used:
Type in all cases: in vivo
[1] = tested on: transgenic soybean plants; experiment: flumioxazin tolerance of transgenic soybean plants (spray, grade of pesticide damage); conditions: for The grade of pesticide damage/plant: grade 0 / The grade of pesticide damage/plant: grade 1 / The grade of pesticide damage/plant: grade 2 / The grade of pesticide damage/plant: grade 3: 7 DAT, number of plants of 16 per genotype, grades
[2] = tested on: transgenic soybean plants; experiment: oxyfluorfen tolerance of transgenic soybean plants (spray, grade of pesticide damage); conditions: for The grade of pesticide damage/plant: grade 0 / The grade of pesticide damage/plant: grade 1 / The grade of pesticide damage/plant: grade 2 / The grade of pesticide damage/plant: grade 3: 7 DAT, number of plants of 16 per genotype, grades; for tolerance to oxyfluorfen: soybean
[3] = tested on: transgenic soybean plants; experiment: saflufenacil tolerance of transgenic soybean plants (spray, grade of pesticide damage); conditions: for The grade of pesticide damage/plant: grade 0 / The grade of pesticide damage/plant: grade 1 / The grade of pesticide damage/plant: grade 2 / The grade of pesticide damage/plant: grade 3: 7 DAT, number of plants of 16 per genotype, grades

B1: PPO-ECA: nucleotide sequence encoding Escherichia coli protoporphyrinogen oxidase PPO-EC (SEQ ID NO:43), Arabidopsis thaliana/soybean common codon usage bias (nucleic acid)
DNA: ATGAAAACACTTATCTTGTTCTCAACTAGAGATGGACAGACAAGAGAGATTGCTTCTTACTTGGCTTCAGAACTTAAGGAGTTGGGTATTCAAGCTGATGTTGCTAATGTTCATAGAATTGAAGAGCCTCAGTGGGAAAACTATGATAGAGTTGTTATTGGAGCTTCTATTAGATATGGTCATTACCATTCAGCTTTTCAAGAGTTCGTTAAGAAACATGCTACTAGACTTAACTCTATGCCATCAGCTTTTTACTCTGTTAACTTGGTTGCTAGAAAGCCTGAGAAAAGAACTCCACAAACAAACTCTTACGCTAGAAAGTTCCTTATGAACTCACAGTGGAGACCTGATAGATGCGCTGTTATTGCTGGTGCTCTTAGATATCCAAGATACAGATGGTACGATAGATTCATGATCAAGTTGATTATGAAAATGTCTGGAGGTGAAACTGATACAAGAAAGGAGGTTGTTTACACAGATTGGGAACAGGTTGCTAATTTCGCTAGAGAGATTGCTCATCTTACTGATAAGCCAACATTGAAATGA
modifications: The nucleotide sequence of PPO-ECA
[1]; flumioxazin 120 g ai/ha (2×)
  The grade of pesticide damage/plant: grade 0: 16 plant
  The grade of pesticide damage/plant: grade 1: 0 plant
  The grade of pesticide damage/plant: grade 2: 0 plant
  The grade of pesticide damage/plant: grade 3: 0 plant
[1]; flumioxazin 240 g ai/ha (4×)
  The grade of pesticide damage/plant: grade 0: 15 plant
  The grade of pesticide damage/plant: grade 1: 1 plant
  The grade of pesticide damage/plant: grade 2: 0 plant
  The grade of pesticide damage/plant: grade 3: 0 plant
[1]; soybean, flumioxazin at different concentrations (120 and 240 g ai/ha)
  tolerance to flumioxazin: high-resistant tolerance
[2]; oxyfluorfen 360 g ai/ha (2×)
  The grade of pesticide damage/plant: grade 0: 16 plant
  The grade of pesticide damage/plant: grade 1: 0 plant
  The grade of pesticide damage/plant: grade 2: 0 plant
  The grade of pesticide damage/plant: grade 3: 0 plant
[2]; oxyfluorfen 720 g ai/ha (4×)
  The grade of pesticide damage/plant: grade 0: 13 plant
  The grade of pesticide damage/plant: grade 1: 3 plant
  The grade of pesticide damage/plant: grade 2: 0 plant
  The grade of pesticide damage/plant: grade 3: 0 plant
[2]; oxyfluorfen at four-fold field concentration (720 g ai/ha)
  tolerance to oxyfluorfen: high-resistant tolerance
[2]; oxyfluorfen at two-fold field concentration (360 g ai/ha)
  tolerance to oxyfluorfen: high-resistant tolerance
[3]; saflufenacil 50 g ai/ha (2×)
  The grade of pesticide damage/plant: grade 0: 9 plant
  The grade of pesticide damage/plant: grade 1: 7 plant
  The grade of pesticide damage/plant: grade 2: 0 plant
  The grade of pesticide damage/plant: grade 3: 0 plant
[3]; saflufenacil 100 g ai/ha (4×)
  The grade of pesticide damage/plant: grade 0: 8 plant
  The grade of pesticide damage/plant: grade 1: 3 plant
  The grade of pesticide damage/plant: grade 2: 5 plant
  The grade of pesticide damage/plant: grade 3: 0 plant
[3]; soybean, saflufenacil, compared with the control vector and CK
  tolerance to saflufenacil: different extents of tolerance
